Experiment [1] addresses T1, Cam1 (fission yeast calmodulin), amino-terminally acetylated (S. pombe, UniProt P05933 1-150, amino-terminal (Nt) acetylation). Put plainly: FRET; second site (Kd2).
For experiment [2], the target named is T1, Cam1 (fission yeast calmodulin), …. Put plainly: FRET; first site (Kd1; <0.1 uM).
Experiment [3] has the same target. Put plainly: FRET.

T1 sequence (P05933 whole entry): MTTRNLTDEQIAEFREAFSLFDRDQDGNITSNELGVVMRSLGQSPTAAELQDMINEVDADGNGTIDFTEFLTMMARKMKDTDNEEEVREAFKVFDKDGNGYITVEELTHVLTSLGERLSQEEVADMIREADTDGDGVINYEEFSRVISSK

One may read the Kd as the free concentration of one partner at which half of the binding sites on the other are occupied at equilibrium, for simple one-to-one binding. Read a low Kd as tighter binding. Consider CyPet-DTMATRIQRAWRSYVRRRDEAAACIQKLWNRNKVNMELERVRNEGTK-YPet (domain or fragment, not fully specified) [CyPet-Myo1^IQ12-S742D-YPet FRET reporter protein], for which the Kd in experiment [1] was determined as 540 nM; in experiment [2], 90 nM.

DTMATRIQRAWRSYVRRRSEAAACIQKLWNRNKVNMELERVRNEGTK (domain or fragment) [CyPet-Myo1^IQ12-YPet FRET reporter protein] had a Kd in experiment [2] of 40 nM.

DTMATRIQRAWRSYVRRRSEA (domain or fragment) [CyPet-Myo1^IQ1-YPet FRET reporter protein]: the affinity in experiment [3], expressed as Kd, was 60 nM.

The record behind these values is article doi:10.1101/498865 (2018).
